Laboratory results from the supplement of paper PMC11316812.
± gives the standard deviation of the averaged measurements.

How the values were obtained:
MCF7 = assay: percentage of EdU-negative (G0-arrested) nuclei per well, 72 h; higher = more G0 arrest; details: reference: sequence is the full UniProt precursor, the tested protein was the secreted form or ectodomain
hTERT-HMEC = assay: as above; details: reference: sequence is the full UniProt precursor, the tested protein was the secreted form or ectodomain
[1] = protein concentration 0.00828571 µM
[2] = protein concentration 0.0828571 µM
[3] = protein concentration 0.0257143 µM
[4] = protein concentration 0.257143 µM
[5] = protein concentration 0.03125 µM
[6] = protein concentration 0.3125 µM
[7] = protein concentration 0.0191325 µM
[8] = protein concentration 0.191325 µM
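Also: secreted proteins added to cultured cells, EdU pulse at the end, nuclei found by Hoechst imaging, EdU status from nuclear versus surrounding ring intensity ratio, PBS as neutral control.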

MEEGQYSEIEELPRRRCCRRGTQIVLLGLVTAALWAGLLTLLLLWHWDTTQSLKQLEERAARNVSQVSKNLESHHGDQMAQKSQSTQISQELEELRAEQQRLKSQDLELSWNLNGLQADLSSFKSQELNERNEASDLLERLREEVTKLRMELQVSSGFVCNTCPEKWINFQRKCYYFGKGTKQWVHARYACDDMEGQLVSIHSPEEQDFLTKHASHTGSWIGLRNLDLKGEFIWVDGSHVDYSNWAPGEPTSRSQGEDCVMMRGSGRWNDAFCDRKLGAWVCDRLATCTPPASEGSAESMGPDSRPDPDGRLPTPSAPLHS
percentage of EdU-negative (MCF7; protein concentration 0.005 µM): 23.6 ± 0.92%
percentage of EdU-negative (MCF7; protein concentration 0.05 µM): 23.9 ± 0.99%
percentage of EdU-negative (hTERT-HMEC; protein concentration 0.005 µM): 5.26 ± 0.5%
percentage of EdU-negative (hTERT-HMEC; protein concentration 0.05 µM): 5.97 ± 0.12%

MGTATRRKPHLLLVAAVALVSSSAWSSALGSQTTFGPVFEDQPLSVLFPEESTEEQVLLACRARASPPATYRWKMNGTEMKLEPGSRHQLVGGNLVIMNPTKAQDAGVYQCLASNPVGTVVSREAILRFGFLQEFSKEERDPVKAHEGWGVMLPCNPPAHYPGLSYRWLLNEFPNFIPTDGRHFVSQTTGNLYIARTNASDLGNYSCLATSHMDFSTKSVFSKFAQLNLAAEDTRLFAPSIKARFPAETYALVGQQVTLECFAFGNPVPRIKWRKVDGSLSPQWTTAEPTLQIPSVSFEDEGTYECEAENSKGRDTVQGRIIVQAQPEWLKVISDTEADIGSNLRWGCAAAGKPRPTVRWLRNGEPLASQNRVEVLAGDLRFSKLSLEDSGMYQCVAENKHGTIYASAELAVQALAPDFRLNPVRRLIPAARGGEILIPCQPRAAPKAVVLWSKGTEILVNSSRVTVTPDGTLIIRNISRSDEGKYTCFAENFMGKANSTGILSVRDATKITLAPSSADINLGDNLTLQCHASHDPTMDLTFTWTLDDFPIDFDKPGGHYRRTNVKETIGDLTILNAQLRHGGKYTCMAQTVVDSASKEATVLVRGPPGPPGGVVVRDIGDTTIQLSWSRGFDNHSPIAKYTLQARTPPAGKWKQVRTNPANIEGNAETAQVLGLTPWMDYEFRVIASNILGTGEPSGPSSKIRTREAAPSVAPSGLSGGGGAPGELIVNWTPMSREYQNGDGFGYLLSFRRQGSTHWQTARVPGADAQYFVYSNESVRPYTPFEVKIRSYNRRGDGPESLTALVYSAEEEPRVAPTKVWAKGVSSSEMNVTWEPVQQDMNGILLGYEIRYWKAGDKEAAADRVRTAGLDTSARVSGLHPNTKYHVTVRAYNRAGTGPASPSANATTMKPPPRRPPGNISWTFSSSSLSIKWDPVVPFRNESAVTGYKMLYQNDLHLTPTLHLTGKNWIEIPVPEDIGHALVQIRTTGPGGDGIPAEVHIVRNGGTSMMVENMAVRPAPHPGTVISHSVAMLILIGSLEL
percentage of EdU-negative (MCF7; [1]): 24.5 ± 3%
percentage of EdU-negative (MCF7; [2]): 25.1 ± 0.57%
percentage of EdU-negative (hTERT-HMEC; [1]): 5.61 ± 0.96%
percentage of EdU-negative (hTERT-HMEC; [2]): 5.98 ± 2%

MKVLLCDLLLLSLFSSVFSSCQRDCLTCQEKLHPALDSFDLEVCILECEEKVFPSPLWTPCTKVMARSSWQLSPAAPEHVAAALYQPRASEMQHLRRMPRVRSLFQEQEEPEPGMEEAGEMEQKQLQKRFGGFTGARKSARKLANQKRFSEFMRQYLVLSMQSSQRRRTLHQNGNV
percentage of EdU-negative (MCF7; [3]): 24.9 ± 0.7%
percentage of EdU-negative (MCF7; [4]): 27.5 ± 0.28%
percentage of EdU-negative (hTERT-HMEC; [3]): 4.77 ± 0.15%
percentage of EdU-negative (hTERT-HMEC; [4]): 5.6 ± 0.068%

MPWPLLLLLAVSGAQTTRPCFPGCQCEVETFGLFDSFSLTRVDCSGLGPHIMPVPIPLDTAHLDLSSNRLEMVNESVLAGPGYTTLAGLDLSHNLLTSISPTAFSRLRYLESLDLSHNGLTALPAESFTSSPLSDVNLSHNQLREVSVSAFTTHSQGRALHVDLSHNLIHRLVPHPTRAGLPAPTIQSLNLAWNRLHAVPNLRDLPLRYLSLDGNPLAVIGPGAFAGLGGLTHLSLASLQRLPELAPSGFRELPGLQVLDLSGNPKLNWAGAEVFSGLSSLQELDLSGTNLVPLPEALLLHLPALQSVSVGQDVRCRRLVREGTYPRRPGSSPKVALHCVDTRDSAARGPTIL [Q8WUA8]
percentage of EdU-negative (MCF7; [5]): 28 ± 1.4%
percentage of EdU-negative (MCF7; [6]): 29.1 ± 0.81%
percentage of EdU-negative (hTERT-HMEC; [5]): 5.33 ± 0.84%
percentage of EdU-negative (hTERT-HMEC; [6]): 5.25 ± 0.93%

MLPLWTLSLLLGAVAGKEVCYERLGCFSDDSPWSGITERPLHILPWSPKDVNTRFLLYTNENPNNFQEVAADSSSISGSNFKTNRKTRFIIHGFIDKGEENWLANVCKNLFKVESVNCICVDWKGGSRTGYTQASQNIRIVGAEVAYFVEFLQSAFGYSPSNVHVIGHSLGAHAAGEAGRRTNGTIGRITGLDPAEPCFQGTPELVRLDPSDAKFVDVIHTDGAPIVPNLGFGMSQVVGHLDFFPNGGVEMPGCKKNILSQIVDIDGIWEGTRDFAACNHLRSYKYYTDSIVNPDGFAGFPCASYNVFTANKCFPCPSGGCPQMGHYADRYPGKTNDVGQKFYLDTGDASNFARWRYKVSVTLSGKKVTGHILVSLFGNKGNSKQYEIFKGTLKPDSTHSNEFDSDVDVGDLQMVKFIWYNNVINPTLPRVGASKIIVETNVGKQFNFCSPETVREEVLLTLTPC
percentage of EdU-negative (MCF7; [5]): 22.6 ± 0.74%
percentage of EdU-negative (MCF7; [6]): 24.8 ± 1.1%
percentage of EdU-negative (hTERT-HMEC; [5]): 4.88 ± 0.32%
percentage of EdU-negative (hTERT-HMEC; [6]): 5.95 ± 0.29%

MRTQSLLLLGALLAVGSQLPAVFGRKKGEKSGGCPPDDGPCLLSVPDQCVEDSQCPLTRKCCYRACFRQCVPRVSVKLGSCPEDQLRCLSPMNHLCHKDSDCSGKKRCCHSACGRDCRDPARGTAPGCPGQANSDLGSVALHLSWGPTERVHDGRPGALPAGQHYLYQRWFQPSDNHWPADTSLQPIHPWFLLLGVKVHSLSSEEGLCITPVLCTTAIRASHPS [Q8TCV5]
percentage of EdU-negative (MCF7; [3]): 23.5 ± 0.78%
percentage of EdU-negative (MCF7; [4]): 28.7 ± 0.3%
percentage of EdU-negative (hTERT-HMEC; [3]): 5.766 ± 0.04%
percentage of EdU-negative (hTERT-HMEC; [4]): 5.25 ± 1.3%

MLLPWATSAPGLAWGPLVLGLFGLLAASQPQAVPPYASENQTCRDQEKEYYEPQHRICCSRCPPGTYVSAKCSRIRDTVCATCAENSYNEHWNYLTICQLCRPCDPVMGLEEIAPCTSKRKTQCRCQPGMFCAAWALECTHCELLSDCPPGTEAELKDEVGKGNNHCVPCKAGHFQNTSSPSARCQPHTRCENQGLVEAAPGTAQSDTTCKNPLEPLPPEMSGTMLMLAVLLPLAFFLLLATVFSCIWKSHPSLCRKLGSLLKRRPQGEGPNPVAGSWEPPKAHPYFPDLVQPLLPISGDVSPVSTGLPAAPVLEAGVPQQQSPLDLTREPQLEPGEQSQVAHGTNGIHVTGGSMTITGNIYIYNGPVLGGPPGPGDLPATPEPPYPIPEEGDPGPPGLSTPHQEDGKAWHLAETEHCGATPSNRGPRNQFITHD
percentage of EdU-negative (MCF7; [7]): 26.7 ± 0.76%
percentage of EdU-negative (MCF7; [8]): 27.3 ± 0.76%
percentage of EdU-negative (hTERT-HMEC; [7]): 5.06 ± 0.25%
percentage of EdU-negative (hTERT-HMEC; [8]): 5.55 ± 1.9%

MSLRLDTTPSCNSARPLHALQVLLLLSLLLTALASSTKGQTKRNLAKGKEESLDSDLYAELRCMCIKTTSGIHPKNIQSLEVIGKGTHCNQVEVIATLKDGRKICLDPDAPRIKKIVQKKLAGDESAD
percentage of EdU-negative (MCF7; [5]): 26.14 ± 0.19%
percentage of EdU-negative (MCF7; [6]): 26.53 ± 0.004%
percentage of EdU-negative (hTERT-HMEC; [5]): 5.49 ± 1.9%
percentage of EdU-negative (hTERT-HMEC; [6]): 4.65 ± 0.1%
